Tests used:
[1] = molecular target: T1, low density lipoprotein receptor-related protein (LRP), purified and immobilized (UniProt Q07954 20-4544, limits assumed); test: SPR, LRP immobilized (6.7 fmol/mm^2), two classes of binding sites, class B
T1 construct: Purified LRP, amine-coupled to a CM5 sensor chip; also called low density lipoprotein receptor protein; alpha2-macroglobulin receptor
Description: (§1) This method is generally known in the art and was employed for the kinetic analysis of the interaction between LRP and receptor-associated protein (RAP) (Hom I, in LRP-ligand interactions: kinetics and structural requirements; Ph.D. thesis, 1997, pp. 65-106, Amsterdam University). […] Subsequently, the channels were incubated with the same buffer at a similar flow so as to enable dissociation.
(§2) The data were analyzed by means of Biacore Evaluation Software (Pharmacia Biosensor AB, Uppsala, Sweden). […] The association and dissociation speed constants (kₒₙ and koff, respectively) were calculated for the two binding sites. These speed constants were subsequently used to obtain the affinity constants (Kd) for these interactions.

[2] = molecular target: T1, low density lipoprotein …; test: SPR, LRP immobilized (6.7 fmol/mm^2), two classes of binding sites, class A; Kd = koff/kon
Description: as §1, §2

[3] = molecular target: T1, low density lipoprotein …; test: SPR, LRP immobilized (6.7 fmol/mm^2), two classes of binding sites, class A
Description: as §1, §2

[4] = molecular target: T1, low density lipoprotein …; test: SPR, LRP immobilized (6.7 fmol/mm^2), two classes of binding sites, class B; Kd = koff/kon
Description: as §1, §2

T1 sequence (Q07954 20-4544 limits assumed, form in doubt): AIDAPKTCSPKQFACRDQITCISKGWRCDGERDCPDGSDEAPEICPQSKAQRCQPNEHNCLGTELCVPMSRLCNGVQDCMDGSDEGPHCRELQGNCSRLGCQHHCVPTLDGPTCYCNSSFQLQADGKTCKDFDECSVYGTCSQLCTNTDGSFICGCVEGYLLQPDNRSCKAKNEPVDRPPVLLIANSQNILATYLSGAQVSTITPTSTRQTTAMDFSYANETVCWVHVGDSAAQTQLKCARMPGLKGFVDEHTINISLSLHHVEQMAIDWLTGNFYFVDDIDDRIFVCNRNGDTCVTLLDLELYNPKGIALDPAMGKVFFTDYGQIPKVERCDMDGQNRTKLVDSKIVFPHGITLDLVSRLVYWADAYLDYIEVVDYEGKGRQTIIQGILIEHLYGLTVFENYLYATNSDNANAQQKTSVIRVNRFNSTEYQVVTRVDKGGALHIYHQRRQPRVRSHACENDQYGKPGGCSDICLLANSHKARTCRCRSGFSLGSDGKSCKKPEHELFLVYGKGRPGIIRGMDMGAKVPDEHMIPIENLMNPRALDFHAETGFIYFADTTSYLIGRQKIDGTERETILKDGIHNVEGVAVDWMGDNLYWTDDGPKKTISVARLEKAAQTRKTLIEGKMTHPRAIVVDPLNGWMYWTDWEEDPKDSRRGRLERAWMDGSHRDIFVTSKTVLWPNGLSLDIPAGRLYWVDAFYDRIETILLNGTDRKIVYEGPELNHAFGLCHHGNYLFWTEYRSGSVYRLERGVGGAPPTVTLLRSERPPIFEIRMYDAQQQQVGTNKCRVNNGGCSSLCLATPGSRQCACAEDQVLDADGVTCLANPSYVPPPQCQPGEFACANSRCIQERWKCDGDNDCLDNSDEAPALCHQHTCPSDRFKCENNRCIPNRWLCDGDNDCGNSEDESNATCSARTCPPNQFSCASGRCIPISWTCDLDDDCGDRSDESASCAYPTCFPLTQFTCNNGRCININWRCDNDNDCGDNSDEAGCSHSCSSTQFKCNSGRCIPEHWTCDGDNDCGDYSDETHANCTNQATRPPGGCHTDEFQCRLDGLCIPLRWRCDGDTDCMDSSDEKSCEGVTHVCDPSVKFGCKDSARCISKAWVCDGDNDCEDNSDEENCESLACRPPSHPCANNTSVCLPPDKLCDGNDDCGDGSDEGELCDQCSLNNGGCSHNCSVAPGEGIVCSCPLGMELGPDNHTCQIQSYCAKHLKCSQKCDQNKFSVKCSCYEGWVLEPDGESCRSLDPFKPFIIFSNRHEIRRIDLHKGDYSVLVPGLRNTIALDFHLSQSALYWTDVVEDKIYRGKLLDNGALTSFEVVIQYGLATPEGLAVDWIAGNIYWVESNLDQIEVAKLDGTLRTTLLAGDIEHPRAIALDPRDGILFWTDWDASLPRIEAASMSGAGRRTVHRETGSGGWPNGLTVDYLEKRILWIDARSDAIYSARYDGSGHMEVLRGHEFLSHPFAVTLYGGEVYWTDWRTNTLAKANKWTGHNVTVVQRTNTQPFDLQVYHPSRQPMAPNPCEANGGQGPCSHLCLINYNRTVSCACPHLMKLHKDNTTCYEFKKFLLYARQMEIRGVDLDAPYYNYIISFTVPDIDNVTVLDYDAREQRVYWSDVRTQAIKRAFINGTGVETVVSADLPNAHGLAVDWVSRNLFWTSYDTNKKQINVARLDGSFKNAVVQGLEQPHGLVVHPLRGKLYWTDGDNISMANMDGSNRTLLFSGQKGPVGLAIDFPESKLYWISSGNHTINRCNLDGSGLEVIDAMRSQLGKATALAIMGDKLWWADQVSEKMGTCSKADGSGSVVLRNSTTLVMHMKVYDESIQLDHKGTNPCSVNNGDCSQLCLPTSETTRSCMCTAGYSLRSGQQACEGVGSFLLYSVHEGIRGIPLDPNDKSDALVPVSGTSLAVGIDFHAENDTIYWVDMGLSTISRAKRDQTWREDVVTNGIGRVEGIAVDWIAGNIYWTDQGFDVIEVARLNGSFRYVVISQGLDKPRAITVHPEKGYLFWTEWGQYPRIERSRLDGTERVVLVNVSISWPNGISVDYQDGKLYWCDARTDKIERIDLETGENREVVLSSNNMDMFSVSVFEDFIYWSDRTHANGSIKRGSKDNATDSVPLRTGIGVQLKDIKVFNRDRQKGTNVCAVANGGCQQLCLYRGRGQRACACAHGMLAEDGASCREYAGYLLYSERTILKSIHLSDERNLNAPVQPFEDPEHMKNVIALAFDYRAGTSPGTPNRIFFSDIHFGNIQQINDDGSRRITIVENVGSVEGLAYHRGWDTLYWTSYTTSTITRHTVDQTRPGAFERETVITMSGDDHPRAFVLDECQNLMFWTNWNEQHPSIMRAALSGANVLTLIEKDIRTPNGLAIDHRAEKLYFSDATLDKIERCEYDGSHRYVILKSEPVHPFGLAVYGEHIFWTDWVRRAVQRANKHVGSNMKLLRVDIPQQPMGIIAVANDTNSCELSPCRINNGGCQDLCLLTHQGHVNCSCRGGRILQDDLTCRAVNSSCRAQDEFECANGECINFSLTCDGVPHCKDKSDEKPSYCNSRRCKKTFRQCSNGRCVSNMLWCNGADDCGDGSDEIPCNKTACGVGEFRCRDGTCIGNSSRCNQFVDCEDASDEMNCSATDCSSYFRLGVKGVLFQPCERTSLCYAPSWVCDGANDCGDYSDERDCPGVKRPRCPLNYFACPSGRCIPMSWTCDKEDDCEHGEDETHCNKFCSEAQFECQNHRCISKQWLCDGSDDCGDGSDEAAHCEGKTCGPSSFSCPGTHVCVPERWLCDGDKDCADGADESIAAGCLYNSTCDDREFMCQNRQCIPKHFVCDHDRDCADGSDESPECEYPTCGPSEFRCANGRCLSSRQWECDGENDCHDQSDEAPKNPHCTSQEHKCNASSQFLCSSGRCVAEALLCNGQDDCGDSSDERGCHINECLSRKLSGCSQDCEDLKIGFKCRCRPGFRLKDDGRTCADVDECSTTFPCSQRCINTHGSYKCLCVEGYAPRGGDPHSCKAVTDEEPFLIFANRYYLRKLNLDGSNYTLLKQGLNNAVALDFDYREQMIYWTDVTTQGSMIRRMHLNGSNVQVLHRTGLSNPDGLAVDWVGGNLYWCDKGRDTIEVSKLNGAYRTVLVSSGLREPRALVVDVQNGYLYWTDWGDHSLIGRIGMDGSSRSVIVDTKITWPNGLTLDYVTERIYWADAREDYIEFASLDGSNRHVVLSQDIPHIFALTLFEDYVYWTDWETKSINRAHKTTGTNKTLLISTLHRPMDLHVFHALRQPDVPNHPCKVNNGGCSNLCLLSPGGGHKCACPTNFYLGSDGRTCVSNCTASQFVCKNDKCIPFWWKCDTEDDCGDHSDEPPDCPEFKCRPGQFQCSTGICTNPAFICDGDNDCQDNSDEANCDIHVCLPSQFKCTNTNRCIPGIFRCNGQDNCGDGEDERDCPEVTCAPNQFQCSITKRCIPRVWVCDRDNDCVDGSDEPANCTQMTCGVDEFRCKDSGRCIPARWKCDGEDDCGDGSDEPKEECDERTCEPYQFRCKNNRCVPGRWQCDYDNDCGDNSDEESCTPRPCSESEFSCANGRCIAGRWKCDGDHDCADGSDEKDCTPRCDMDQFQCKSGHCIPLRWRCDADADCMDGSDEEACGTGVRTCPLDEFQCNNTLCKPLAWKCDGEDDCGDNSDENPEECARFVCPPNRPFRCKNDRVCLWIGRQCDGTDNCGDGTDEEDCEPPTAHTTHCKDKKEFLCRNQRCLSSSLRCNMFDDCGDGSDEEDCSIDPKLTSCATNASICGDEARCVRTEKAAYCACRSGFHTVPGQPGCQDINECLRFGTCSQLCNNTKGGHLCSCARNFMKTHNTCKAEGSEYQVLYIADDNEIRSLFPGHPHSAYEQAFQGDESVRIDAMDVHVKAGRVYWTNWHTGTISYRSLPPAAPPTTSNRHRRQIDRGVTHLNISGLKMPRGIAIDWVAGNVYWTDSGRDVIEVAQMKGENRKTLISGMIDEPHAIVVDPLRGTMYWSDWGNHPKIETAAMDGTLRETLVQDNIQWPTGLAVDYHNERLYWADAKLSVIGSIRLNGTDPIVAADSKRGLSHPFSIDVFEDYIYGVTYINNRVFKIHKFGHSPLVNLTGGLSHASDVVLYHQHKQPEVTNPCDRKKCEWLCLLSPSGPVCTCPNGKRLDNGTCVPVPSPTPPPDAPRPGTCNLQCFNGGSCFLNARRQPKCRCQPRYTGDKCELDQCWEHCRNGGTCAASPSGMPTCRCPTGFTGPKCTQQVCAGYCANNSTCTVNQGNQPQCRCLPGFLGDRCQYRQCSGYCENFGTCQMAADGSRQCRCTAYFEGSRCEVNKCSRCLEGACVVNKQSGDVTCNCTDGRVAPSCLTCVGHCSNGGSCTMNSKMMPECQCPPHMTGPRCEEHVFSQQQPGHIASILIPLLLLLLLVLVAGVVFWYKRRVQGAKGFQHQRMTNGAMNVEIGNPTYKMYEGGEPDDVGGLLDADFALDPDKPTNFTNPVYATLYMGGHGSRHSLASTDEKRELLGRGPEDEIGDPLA

koff [1]: 0.0027 s⁻¹
kon [1]: 72000 M⁻¹ s⁻¹
Kd [2]: 182 nM
koff [3]: 0.055 s⁻¹
kon [3]: 300000 M⁻¹ s⁻¹
Kd [4]: 37 nM
B1: light chain of Factor VIII (other)
chain: EITRTTLQSDQEEIDYDDTISVEMKKEDFDIYDEDENQSPRSFQKKTRHYFIAAVERLWDYGMSSSPHVLRNRAQSGSVPQFKKVVFQEFTDGSFTQPLYRGELNEHLGLLGPYIRAEVEDNIMVTFRNQASRPYSFYSSLISYEEDQRQGAEPRKNFVKPNETKTYFWKVQHHMAPTKDEFDCKAWAYFSDVDLEKDVHSGLIGPLLVCHTNTLNPAHGRQVTVQEFALFFTIFDETKSWYFTENMERNCRAPCNIQMEDPTFKENYRFHAINGYIMDTLPGLVMAQDQRIRWYLLSMGSNENIHSIHFSGHVFTVRKKEEYKMALYNLYPGVFETVEMLPSKAGIWRVECLIGEHLHAGMSTLFLVYSNKCQTPLGMASGHIRDFQITASGQYGQWAPKLARLHYSGSINAWSTKEPFSWIKVDLLAPMIIHGIKTQGARQKFSSLYISQFIIMYSLDGKKWQTYRGNSTGTLMVFFGNVDSSGIKHNIFNPPIIARYIRLHPTHYSIRSTLRMELMGCDLNSCSMPLGMESKAISDAQITASSYFTNMFATWSPSKARLHLQGRSNAWRPQVNNPKEWLQVDFQKTMKVTGVTTQGVKSLLTSMYVKEFLISSSQDGHQWTLFFQNGKVKVFQGNQDSFTPVVNSLDPPLLTRYLRIHPQSWVHQIALRMEVLGCEAQDLY
notes: also called Factor VIII light chain
